# Measured values from IntAct's records for PubMed 20389281.
# Key:
# snai1_human SNAI1 [1] = target: snai1_human SNAI1 (UniProt O95863)
# snai1_human SNAI1 [2] = target: snai1_human SNAI1 (UniProt O95863); remark: listed apart in the source
# snai1_human SNAI1, sequence (O95863 whole entry): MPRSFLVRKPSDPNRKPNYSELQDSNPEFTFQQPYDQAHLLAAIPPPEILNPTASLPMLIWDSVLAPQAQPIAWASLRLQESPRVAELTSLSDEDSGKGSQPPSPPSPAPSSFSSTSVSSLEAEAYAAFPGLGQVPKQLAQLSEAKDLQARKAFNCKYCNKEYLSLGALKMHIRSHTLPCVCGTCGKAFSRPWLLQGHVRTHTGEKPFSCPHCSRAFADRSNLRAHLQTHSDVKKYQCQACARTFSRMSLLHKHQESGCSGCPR
Substance,effect of a mutation on the interaction (snai1_human SNAI1 [1]),effect of a mutation on the interaction (snai1_human SNAI1 [2])
Lysine-specific histone demethylase 1A (Homo sapiens) (from UniProt O60341) D556A,disrupting interaction,–
Lysine-specific histone demethylase 1A (Homo sapiens) (from UniProt O60341) D555A,disrupting interaction,–
Lysine-specific histone demethylase 1A (Homo sapiens) (from UniProt O60341) D553A,disrupting interaction,–
Lysine-specific histone demethylase 1A (Homo sapiens) (from UniProt O60341) D375A,–,disrupting interaction
Lysine-specific histone demethylase 1A (Homo sapiens) (from UniProt O60341) E379A,–,disrupting interaction
